One block for each binder: values may come before it.
Tests used:
mouse IL-19 = molecular target: T1, mouse IL-19 (mouse, UniProt Q8CJ70 25-176, limits assumed); experiment: yeast surface display of single-chain Fab library, panning with mouse IL-19
T1 construct: Used as immunogen and for panning; in the in-house ELISA it is the IL-19 secreted in mouse ear cultures; also called murine IL-19
T1 sequence (looked up): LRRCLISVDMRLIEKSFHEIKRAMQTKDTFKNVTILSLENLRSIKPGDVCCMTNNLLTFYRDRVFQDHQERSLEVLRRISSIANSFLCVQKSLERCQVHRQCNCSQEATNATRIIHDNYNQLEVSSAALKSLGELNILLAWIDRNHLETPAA

human IL-19 [1] = molecular target: T2, human IL-19 (human, UniProt Q9UHD0 25-177); experiment: cell-based or functional assay
T2 sequence: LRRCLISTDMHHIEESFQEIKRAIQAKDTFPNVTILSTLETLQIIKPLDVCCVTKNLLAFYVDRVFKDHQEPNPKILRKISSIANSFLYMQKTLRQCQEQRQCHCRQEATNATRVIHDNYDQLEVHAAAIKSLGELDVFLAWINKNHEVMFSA

cyno IL-19 [2] = molecular target: T3, cyno IL-19 (cyno); experiment: cell-based or functional assay
T3 chain: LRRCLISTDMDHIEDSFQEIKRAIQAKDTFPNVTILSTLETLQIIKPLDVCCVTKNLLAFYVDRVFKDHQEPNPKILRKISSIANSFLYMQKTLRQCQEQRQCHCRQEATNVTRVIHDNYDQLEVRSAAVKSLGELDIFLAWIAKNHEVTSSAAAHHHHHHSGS

human IL-19 [3] = molecular target: T2, human IL-19; experiment: MSD-SET solution equilibrium titration, 10 pM fixed biotinylated human IL-19, 37 C, mean of 3 experiments
Source text: A Meso Scale Discovery Solution Equilibrium Titration (MSD-SET) assay, measured with a SECTOR® Imager 6000 (Meso Scale Diagnostics), is used to assess binding of exemplified IL-19 antibodies of the present invention to biotinylated human IL-19 (having the amino acid sequence set for in SEQ ID NO: 1).
Except as noted, all the reagents and materials are from Meso Scale Diagnostics (Rockville, Maryland). Recombinant human IL-19 reagents are biotinylated using the EZ-link sulfo-NHS-Biotin kit (Thermo Cat #A39257). Briefly, 20 pM biotinylated human IL-19 is mixed in a 1:1 ratio with a 3-fold dilution series of exemplified antibody samples of the present invention (mAb 1 and mAb 2) to give a final concentration of: 10 pM biotinylated human IL-19 and a 11-point 3-fold antibody gradient from 1 nM to 0.017 pM. The mix is incubated at 37° C. for 72 hrs. […] After washing three times with wash buffer, 150 μL of 1× Read Buffer T (Cat. #R92TC-1) is added to the well and analyzed on a SECTOR® Imager 6000 (Meso Scale Diagnostics) 5 min after buffer addition. […]
The equilibrium KD is determined by fitting a sigmoidal curve to the electrochemiluminescence (ECL) response vs. log (IL-19 concentration) using assay development tool kit graphed with normalized ECL values.

human IL-19 [4] = molecular target: T2, human IL-19; experiment: cell-based or functional assay; remark: listed apart in the source
cyno IL-19 [5] = molecular target: T3, cyno IL-19; experiment: cell-based or functional assay

- binding result (mouse IL-19): binds
B1: anti-murine IL-19 Ab mAb4 (antibody, V domains shown)
VH: QEQLKESGGGLVQPGGSLKLSCKASGFPLSSYGFSWVRQAPGKGLEWIGYLDPVFGSTLSAHTVNGRLTISSDNAQNTLYLQLNSLTAADTATYFCARGIGYVYYGYTYDLWGPGTLVTVSS
VL: DIVMTQTPASVEAAVGGTVTIKCSASASIYEYLSWYQQKPGQRPKLLIYGASVLTDGVSSRFKGSGSGTEFTLTISDLEAADAATYYCQSYNDGSSSGDAHVFGGGTEVVVK
notes: also called anti-murine IL-19 Ab4

- binding result (mouse IL-19): binds
B2: anti-murine IL-19 Ab mAb 3 (antibody, V domains shown)
VH: QQLEESGGGLAKPEGSLTLTCKTSGFDLSSTYYMSWVRQAPGKGLEWIASIVTSGRSGASYYANWAKGRFTISKTSSTTVTLQMTSLAAADTASYFCVRDLPAPTDDRGLWGPGTLVVVSS
VL: AQVLTQTPSSVSEPVGGTVTINCQASESVYNKNWLSWFQQKPGQPPKLLIYDSSDLASGVPSRFKGSGSGTHFTLTISDVQCGDAATYYCGGSYTDTYVFGGGTEVVVK
notes: also called anti-murine IL-19 Ab3

- IC50 with human IL-19 (IL-19 induced phospho-STAT3 signal, A431 cells) (human IL-19 [1]): 2.31 nM
- IC50 with Cyno IL-19 (IL-19 induced phospho-STAT3 signal, A431 cells) (cyno IL-19 [2]): 1.82 nM
- Kd (human IL-19 [3]): 0.0131 nM
- IC50 for human IL-19 (IL-19 induced IL20Ra/IL20Rb receptor dimerization signal, U2OS PathHunter cells) (human IL-19 [4]): 3.46 nM
- IC50 for Cyno IL-19 (IL-19 induced IL20Ra/IL20Rb receptor dimerization signal, U2OS PathHunter cells) (cyno IL-19 [5]): 2.79 nM
B3: Ab1 (antibody, human IgG4 S228P, kappa, F234A L235A, V domains shown)
VH: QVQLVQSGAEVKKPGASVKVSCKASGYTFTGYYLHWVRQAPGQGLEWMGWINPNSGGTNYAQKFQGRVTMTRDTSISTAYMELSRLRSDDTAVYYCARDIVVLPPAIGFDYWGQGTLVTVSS
VL: AIQLTQSPSSLSASVGDRVTITCRASQDIRSDFGWYQQKPGKAPKLLIYAASSLQSGVPSRFSGSGSGTDFTLTISSLQPEDFATYYCLQDYNYPWTFGQGTKVEIKR
notes: Anti-human IL-19 antibody; Detected with anti-human IgG4 reagents in the PK ELISA, so IgG4; also called mAb 1; mAb1

- IC50 with human IL-19 (IL-19 induced phospho-STAT3 signal, A431 cells) (human IL-19 [1]): 2.21 nM
- IC50 with Cyno IL-19 (IL-19 induced phospho-STAT3 signal, A431 cells) (cyno IL-19 [2]): 1.84 nM
- Kd (human IL-19 [3]): 0.0068 nM
- IC50 for human IL-19 (IL-19 induced IL20Ra/IL20Rb receptor dimerization signal, U2OS PathHunter cells) (human IL-19 [4]): 3.47 nM
- IC50 for Cyno IL-19 (IL-19 induced IL20Ra/IL20Rb receptor dimerization signal, U2OS PathHunter cells) (cyno IL-19 [5]): 2.87 nM
B4: Ab2 (antibody, human IgG4 S228P, kappa, F234A L235A, V domains shown)
VH: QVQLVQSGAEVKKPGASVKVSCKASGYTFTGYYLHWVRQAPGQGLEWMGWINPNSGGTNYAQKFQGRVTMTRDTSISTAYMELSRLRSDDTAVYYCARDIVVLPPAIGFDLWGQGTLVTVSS
VL: B3 VL
notes: Anti-human IL-19 antibody; also called mAb 2; mAb2
